{"source": "patent US20250152717A1", "binders": {"B1": {"name": "TCR 11N4A (TCR)", "TCR alpha": "QQKNDDQQVKQNSPSLSVQEGRISILNCDYTNSMFDYFLWYKKYPAEGPTFLISISSIKDKNEDGRFTVFLNKSAKHLSLHIVPSQPGDSAVYFCAASGVSGNTPLVFGKGTRLSVIANIQNPDPAVYQLRDSKSSDKSVCLFTDFDSQTNVSQSKDSDVYITDKCVLDMRSMDFKSNSAVAWSNKSDFACANAFNNSIIPEDTFFPSPESSCDVKLVEKSFETDTNLNFQNLSVIGFRILLLKVAGFNLLMTLRLWSS", "TCR beta": "GVTQTPRYLIKTRGQQVTLSCSPISGHRSVSWYQQTPGQGLQFLFEYFSETQRNKGNFPGRFSGRQFSNSRSEMNVSTLELGDSALYLCASSVGTVEQYFGPGTRLTVTEDLKNVFPPEVAVFEPSEAEISHTQKATLVCLATGFYPDHVELSWWVNGKEVHSGVCTDPQPLKEQPALNDSRYCLSSRLRVSATFWQNPRNHFRCQVQFYGLSENDEWTQDRAKPVTQIVSAEAWGRADCGFTSESYQQGVLSATILYEILLGKATLYAVLVSALVLMAMVKRKDSRG"}}, "target": "KRAS-G12V8-16 peptide (…) presented by HLA-A11 (human)", "assay": "cell-based or functional assay", "data": [{"binder": "B1", "values": [{"measurement": "percent of TCR 11N4A-transduced T cells responding (CD137) to peptide", "value": "> 80", "unit": "%"}]}]}
